± gives the uncertainty stated by the source.
B1: Ankyrin-1, residues 1405 to 1484; numbered along this chain, P16157 (parent)
chain: MKMAVISEHLGLSWAELARELQFSVEDINRIRVENPNSLLEQSVALLNLWVIREGQNANMENLYTALQSIDRGEIVNMLE

Variants of: B1
Experiment: abundance fitness (aPCA) (normalised: wild type 0, dead -1); higher = more abundant; growth selection in yeast, the domain comes from the species named
Settings: Homo sapiens

Row | Variant | abundance fitness
1 | Q68I | -0.097 ± 0.12
2 | Q68G | -0.152 ± 0.039
3 | E74K | -0.471 ± 0.12
4 | D71C | -0.144 ± 0.094
5 | D71R | 0.008 ± 0.049
6 | D71H | -0.192 ± 0.18
7 | D71V | -0.83 ± 0.12
8 | D71Q | -0.274 ± 0.11
9 | D71M | -0.127 ± 0.14
10 | D71G | 0.095 ± 0.04
11 | D71S | -0.213 ± 0.07
12 | N29H | -0.37 ± 0.2
13 | N29D | 0.041 ± 0.079
14 | N29A | -0.062 ± 0.052
15 | S38N | -0.174 ± 0.11
16 | S38W | -0.754 ± 0.21
17 | S38K | -0.386 ± 0.25
18 | S38Y | -0.749 ± 0.25
19 | Q56D | -0.139 ± 0.19
20 | Q56Y | -0.147 ± 0.17
21 | Q56W | -0.232 ± 0.16
22 | Q56R | -0.02 ± 0.046
23 | N35R | -0.068 ± 0.11
24 | N35S | -0.017 ± 0.12

Row | Variant | abundance fitness
25 | N35C | -0.355 ± 0.22
26 | N35E | 0.051 ± 0.39
27 | N35A | -0.304 ± 0.095
28 | E8R | -0.054 ± 0.052
29 | E8G | -0.273 ± 0.039
30 | E8L | -0.383 ± 0.067
31 | E8F | -0.424 ± 0.11
32 | E8D | -0.3 ± 0.12
33 | E8V | -0.518 ± 0.065
34 | E8I | -0.559 ± 0.28
35 | I70V | -0.193 ± 0.054
36 | I70G | -0.911 ± 0.11
37 | I70S | -0.604 ± 0.13
38 | L40I | 0.061 ± 0.14
39 | L40K | 0.182 ± 0.06
40 | L40P | -0.428 ± 0.075
41 | L40S | -0.16 ± 0.059
42 | L40G | -0.286 ± 0.06
43 | L40A | -0.11 ± 0.052
44 | L40F | 0.015 ± 0.067
45 | E61Q | 0.459 ± 0.34
46 | L46S | -0.832 ± 0.14
47 | L46Q | -1.13 ± 0.41
48 | L46I | -0.446 ± 0.12

Row | Variant | abundance fitness
49 | L46Y | -0.614 ± 0.39
50 | L46K | -0.741 ± 0.31
51 | L46F | -0.204 ± 0.14
52 | L46E | -0.987 ± 0.49
53 | V44A | 0.148 ± 0.059
54 | V44C | 0.05 ± 0.062
55 | V44S | 0.154 ± 0.045
56 | V44E | -0.058 ± 0.12
57 | V44W | -0.021 ± 0.083
58 | V44Q | 0.18 ± 0.12
59 | N37A | -0.025 ± 0.093
60 | N37C | -0.314 ± 0.2
61 | N37P | -1.09 ± 0.48
62 | N37S | -0.064 ± 0.09
63 | I31F | -0.793 ± 0.44
64 | I31S | -0.938 ± 0.18
65 | I31M | -0.524 ± 0.12
66 | I31R | -0.647 ± 0.083
67 | R72M | -0.356 ± 0.13
68 | D27G | -0.573 ± 0.081
69 | D27L | -0.429 ± 0.077
70 | D27T | -0.236 ± 0.14
71 | L39E | 0.105 ± 0.09
72 | L39M | -0.075 ± 0.15

Row | Variant | abundance fitness
73 | L39R | -0.554 ± 0.074
74 | L39W | -0.262 ± 0.09
75 | L39Y | 0.004 ± 0.13
76 | L63S | -0.637 ± 0.18
77 | L63C | -0.748 ± 0.3
78 | L63T | -0.493 ± 0.15
79 | M3G | -0.533 ± 0.073
80 | M3I | 0.127 ± 0.11
81 | M3C | -0.385 ± 0.07
82 | M3L | 0.208 ± 0.049
83 | R32N | -0.369 ± 0.17
84 | R32E | 0.031 ± 0.05
85 | R32G | -0.212 ± 0.06
86 | R32Q | -0.132 ± 0.066
87 | T65L | -0.072 ± 0.049
88 | T65V | -0.153 ± 0.053
89 | T65S | 0.001 ± 0.046
90 | T65E | 0.015 ± 0.074
91 | T65F | -0.095 ± 0.083
92 | V5F | 0.103 ± 0.091
93 | V5C | -0.18 ± 0.087
94 | V5Y | 0.086 ± 0.091
95 | A58T | -0.195 ± 0.14
96 | A58F | -0.253 ± 0.2

Row | Variant | abundance fitness
97 | A58S | -0.078 ± 0.083
98 | A58M | 0.122 ± 0.17
99 | A58C | 0.031 ± 0.14
100 | Q22C | 0.016 ± 0.078
101 | Q22L | -0.126 ± 0.052
102 | Q22V | -0.494 ± 0.079
103 | V76Y | -0.264 ± 0.11
104 | V76M | -0.307 ± 0.097
105 | V76E | -0.358 ± 0.094
106 | V76I | 0.079 ± 0.13
107 | G73F | -0.284 ± 0.1
108 | G73M | -0.396 ± 0.085
109 | G73Q | -0.141 ± 0.066
110 | G73D | -0.491 ± 0.11
111 | A66H | -0.151 ± 0.087
112 | A66M | -0.332 ± 0.2
113 | A66F | -1.05 ± 0.48
114 | A66I | -0.564 ± 0.28
115 | I28Q | -0.577 ± 0.22
116 | I28C | -0.198 ± 0.087
117 | I28P | -0.58 ± 0.14
118 | I28L | -0.529 ± 0.083
119 | I28G | -0.891 ± 0.11
120 | I28D | -0.584 ± 0.43

Row | Variant | abundance fitness
121 | I28Y | -0.485 ± 0.2
122 | I28A | -0.522 ± 0.066
123 | S43W | -0.805 ± 0.17
124 | S43C | -0.552 ± 0.11
125 | S43N | -0.099 ± 0.27
126 | S43H | -0.56 ± 0.14
127 | S43L | -0.944 ± 0.13
128 | E26N | 0.016 ± 0.15
129 | E26T | 0.023 ± 0.094
130 | E26V | -0.233 ± 0.064
131 | E26S | -0.071 ± 0.055
132 | E26I | -0.303 ± 0.15
133 | E26L | -0.153 ± 0.053
134 | L49F | -0.19 ± 0.091
135 | L67G | -0.852 ± 0.097
136 | L67W | -0.999 ± 0.19
137 | L67R | -0.803 ± 0.097
138 | L67I | -0.156 ± 0.14
139 | L67F | -0.788 ± 0.23
140 | L67Q | -0.809 ± 0.26
141 | E16L | -0.162 ± 0.054
142 | E16V | -0.037 ± 0.05
143 | E16T | -0.222 ± 0.095
144 | E16P | -0.091 ± 0.064

Row | Variant | abundance fitness
145 | V51I | 0.017 ± 0.11
146 | V51L | 0.053 ± 0.077
147 | V51G | -0.001 ± 0.05
148 | V51A | -0.072 ± 0.079
149 | V51T | 0.068 ± 0.07
150 | V51W | 0.085 ± 0.087
151 | W14P | -0.785 ± 0.24
152 | W14L | -0.538 ± 0.072
153 | W14K | -0.545 ± 0.21
154 | W14N | -0.865 ± 0.24
155 | E20N | -0.087 ± 0.14
156 | E20L | -0.411 ± 0.057
157 | E20V | -0.175 ± 0.062
158 | E20F | -0.345 ± 0.093
159 | L21W | -0.666 ± 0.13
160 | L21M | 0.048 ± 0.12
161 | L21F | -0.69 ± 0.29
162 | Q42F | -0.899 ± 0.25
163 | Q42E | -0.926 ± 0.18
164 | Q42N | -0.882 ± 0.33
165 | H9L | -0.438 ± 0.1
166 | H9N | -0.019 ± 0.18
167 | H9P | -0.666 ± 0.18

Source: the Human Domainome abundance scans (Beltran et al. 2025)
